Target: HLA A2601 (human)
Assay: 125I-probe competition, purified HLA

Going from QVDYYGLYY (modifications not checked) [HPV16.E2.151] to GTGCNGWFY (modifications not checked) [HPV18/31.E1.11], the IC50 rises from 251 nM to 3080 nM (12-fold). The first is the more potent here.

Compared with NTGILTVTY (modifications not checked) [HPV45.E2.332], LSQMVQWAY (modifications not checked) [HPV16/31.E1.357] is 2-fold higher in IC50: 3150 nM for the first, 6450 nM for the second. The first is the more potent here.

For LSSALEIPY (modifications not checked) [HPV31.E6.15], the IC50 was 4110 nM.

Target: HLA A0202 (human)
Assay: 125I-probe competition, purified HLA

Compared with FLLCFCVLL (modifications not checked) [HPV31.E5.15], YVVWDSIYYI (modifications not checked) [HPV45.E2.137] is 2.1-fold higher in IC50: 13 nM for the first, 27 nM for the second.

First: CLYLHIQSL (modifications not checked) [HPV16.E1.259]
Second: FIYIPLFVI (modifications not checked) [HPV31.E5.66]
The IC50 of the first is 2.2-fold lower: 45 nM for the first, 97 nM for the second. The first is the more potent here.

Compared with VAWDSVYYM (modifications not checked) [HPV18.E2.136], GTLGIVCPV (modifications not checked) [HPV16.E7.85.V9] is 12-fold lower in IC50: 603 nM for the first, 49 nM for the second. The second is the more potent here.

First: TVYVFCFLL (modifications not checked) [HPV18.E5.51]
Second: YTNWKFIYL (modifications not checked) [HPV31.E2.131]
The IC50 of the first is 42-fold higher: 587 nM for the first, 14 nM for the second. The second is the more potent here.

Going from FVYIPLFLI (modifications not checked) [HPV16.E5.66] to TLYAHIQCL (modifications not checked) [HPV45.E1.252], the IC50 falls from 323 nM to 4.9 nM (66-fold).

Target: HLA A0203 (human)
Assay: 125I-probe competition, purified HLA

Compared with FLLCFCVLL (modifications not checked) [HPV31.E5.15], YVVWDSIYYI (modifications not checked) [HPV45.E2.137] is 7.3-fold higher in IC50: 34 nM for the first, 248 nM for the second.

Compared with CLYLHIQSL (modifications not checked) [HPV16.E1.259], FIYIPLFVI (modifications not checked) [HPV31.E5.66] is 2.2-fold higher in IC50: 21 nM for the first, 47 nM for the second. The first is the more potent here.

Going from VAWDSVYYM (modifications not checked) [HPV18.E2.136] to GTLGIVCPV (modifications not checked) [HPV16.E7.85.V9], the IC50 falls from 1330 nM to 68 nM (20-fold). The second is the more potent here.

First: TVYVFCFLL (modifications not checked) [HPV18.E5.51]
Second: YTNWKFIYL (modifications not checked) [HPV31.E2.131]
The IC50 of the first is 25-fold higher: 769 nM for the first, 31 nM for the second.

Going from FVYIPLFLI (modifications not checked) [HPV16.E5.66] to TLYAHIQCL (modifications not checked) [HPV45.E1.252], the IC50 falls from 63 nM to 6.2 nM (10-fold). The second is the more potent here.

Target: HLA A0101 (human)
Assay: 125I-probe competition, purified HLA

Compared with QVDYYGLYY (modifications not checked) [HPV16.E2.151], GTGCNGWFY (modifications not checked) [HPV18/31.E1.11] is 50-fold higher in IC50: 2.7 nM for the first, 136 nM for the second.

Going from NTGILTVTY (modifications not checked) [HPV45.E2.332] to LSQMVQWAY (modifications not checked) [HPV16/31.E1.357], the IC50 falls from 337 nM to 21 nM (16-fold). The second is the more potent here.

For LSSALEIPY (modifications not checked) [HPV31.E6.15], the IC50 was 35 nM.

Target: HLA A0206 (human)
Assay: 125I-probe competition, purified HLA

Compared with FLLCFCVLL (modifications not checked) [HPV31.E5.15], YVVWDSIYYI (modifications not checked) [HPV45.E2.137] is 7.7-fold higher in IC50: 2.6 nM for the first, 20 nM for the second.

First: CLYLHIQSL (modifications not checked) [HPV16.E1.259]
Second: FIYIPLFVI (modifications not checked) [HPV31.E5.66]
The IC50 of the first is 12-fold higher: 100 nM for the first, 8.1 nM for the second. The second is the more potent here.

Compared with VAWDSVYYM (modifications not checked) [HPV18.E2.136], GTLGIVCPV (modifications not checked) [HPV16.E7.85.V9] is 24-fold lower in IC50: 790 nM for the first, 33 nM for the second. The second is the more potent here.

First: TVYVFCFLL (modifications not checked) [HPV18.E5.51]
Second: YTNWKFIYL (modifications not checked) [HPV31.E2.131]
The IC50 of the first is 3.2-fold lower: 26 nM for the first, 84 nM for the second. The first is the more potent here.

Compared with FVYIPLFLI (modifications not checked) [HPV16.E5.66], TLYAHIQCL (modifications not checked) [HPV45.E1.252] is 7.1-fold higher in IC50: 59 nM for the first, 417 nM for the second. The first is the more potent here.

Target: HLA A2902 (human)
Assay: 125I-probe competition, purified HLA

Compared with QVDYYGLYY (modifications not checked) [HPV16.E2.151], GTGCNGWFY (modifications not checked) [HPV18/31.E1.11] is 4.6-fold higher in IC50: 25 nM for the first, 116 nM for the second.

Going from NTGILTVTY (modifications not checked) [HPV45.E2.332] to LSQMVQWAY (modifications not checked) [HPV16/31.E1.357], the IC50 falls from 1400 nM to 122 nM (11-fold).

LSSALEIPY (modifications not checked) [HPV31.E6.15] gave an IC50 of 261 nM.

Target: HLA A0201 (human)
Assay: 125I-probe competition, purified HLA

First: FLLCFCVLL (modifications not checked) [HPV31.E5.15]
Second: YVVWDSIYYI (modifications not checked) [HPV45.E2.137]
The IC50 of the first is 8-fold lower: 9.6 nM for the first, 77 nM for the second. The first is the more potent here.

Compared with CLYLHIQSL (modifications not checked) [HPV16.E1.259], FIYIPLFVI (modifications not checked) [HPV31.E5.66] is 2.8-fold lower in IC50: 73 nM for the first, 26 nM for the second.

Compared with VAWDSVYYM (modifications not checked) [HPV18.E2.136], GTLGIVCPV (modifications not checked) [HPV16.E7.85.V9] is 8.6-fold lower in IC50: 172 nM for the first, 20 nM for the second. The second is the more potent here.

Compared with TVYVFCFLL (modifications not checked) [HPV18.E5.51], YTNWKFIYL (modifications not checked) [HPV31.E2.131] is 2.5-fold lower in IC50: 175 nM for the first, 69 nM for the second. The second is the more potent here.

Going from FVYIPLFLI (modifications not checked) [HPV16.E5.66] to TLYAHIQCL (modifications not checked) [HPV45.E1.252], the IC50 falls from 206 nM to 34 nM (6.1-fold).

Target: HLA A6802 (human)
Assay: 125I-probe competition, purified HLA

Compared with FLLCFCVLL (modifications not checked) [HPV31.E5.15], YVVWDSIYYI (modifications not checked) [HPV45.E2.137] is 7.9-fold lower in IC50: 237 nM for the first, 30 nM for the second. The second is the more potent here.

Going from CLYLHIQSL (modifications not checked) [HPV16.E1.259] to FIYIPLFVI (modifications not checked) [HPV31.E5.66], the IC50 falls from 1780 nM to 157 nM (11-fold). The second is the more potent here.

First: VAWDSVYYM (modifications not checked) [HPV18.E2.136]
Second: GTLGIVCPV (modifications not checked) [HPV16.E7.85.V9]
The IC50 of the first is 160-fold higher: 5150 nM for the first, 32 nM for the second. The second is the more potent here.

Going from TVYVFCFLL (modifications not checked) [HPV18.E5.51] to YTNWKFIYL (modifications not checked) [HPV31.E2.131], the IC50 rises from 41 nM to 146 nM (3.6-fold).

Going from FVYIPLFLI (modifications not checked) [HPV16.E5.66] to TLYAHIQCL (modifications not checked) [HPV45.E1.252], the IC50 rises from 251 nM to 1610 nM (6.4-fold). The first is the more potent here.

Target: HLA A3002 (human)
Assay: 125I-probe competition, purified HLA

Compared with QVDYYGLYY (modifications not checked) [HPV16.E2.151], GTGCNGWFY (modifications not checked) [HPV18/31.E1.11] is 18-fold lower in IC50: 160 nM for the first, 9.1 nM for the second. The second is the more potent here.

First: NTGILTVTY (modifications not checked) [HPV45.E2.332]
Second: LSQMVQWAY (modifications not checked) [HPV16/31.E1.357]
The IC50 of the first is 9400-fold higher: 8720 nM for the first, 0.93 nM for the second. The second is the more potent here.

For LSSALEIPY (modifications not checked) [HPV31.E6.15], the IC50 was 175 nM.
